Where a chain is given by its changes, count along the chain named.
B1: 01C02R3 His-tagged VHH (VHH)
VHH: QVQLVESGGGLVQAGGSLRLSCAASGLSFSSYTMGWFRQVPGKERELISAIHWSGGPTFYSNSVKGRFTISRDNAKDTVYLQMNSLKPEDTAVYYCTAEPVGSMISPDWTYWGQGTLVTVSS
B2: 01C03R3LS His-tagged VHH (VHH)
VHH: EVQLVESGGGLVQPGGSLRLSCVASGLPGSSSRMAWFAQAPGKEREFVAAIAWRGRTSYKYYSDSVKGRFTVSGDNAKRTLDLQMKDLNPEDTALYFCAAHPNDDGDPRISGNYQYWGQGTQVTVSS
B3: 01G07R2L His-tagged VHH (VHH)
VHH: B2 VHH with E1Q, G29F, A52G, S63A, R79K, N89K
B4: 01C03R2L His-tagged VHH (VHH)
VHH: EVQLVESGGGLVQAGGSLRLSCAASGRTLRSYIVGWFRQAPGKEREFVAAVTWSDGRRVTADPVKGRFTISRDNAKNTVYLQMDSLKPEDAAVYYCAVSHGGAYVESRAYEYWGQGTQVTVSS
B5: 01D09R3 His-tagged VHH (VHH)
VHH: QVQLVESGGGLVQAGGSLRLSCAASGRTFSVYAMGWFRQAPGKERQFVAAITWSGGSTSYADSVKGRFTISRDNAKNTVYLQMNILKPEDTAVYYCAAATNPYFSDYYPDLKYEFDYWGQGTLVTVSS
B6: 01D04R3LS His-tagged VHH (VHH)
VHH: EVQLVESGGGLVQAGGSLRLSCAASGRTFRSYAMGWFRQAPGKEREFVADISWRGGRLYYADSVKGRFTISRDNAKNTVYLQMNSLKPEDTAVYYCAATGDQPAFTTAQGMGAMLEYDYWGQGTLVTVSS
B7: 01A06R3LS His-tagged VHH (VHH)
VHH: EVQLVESGGGVVQAEDSLRLSCAASGLPFSSSRMGWFRQAPGKEREFVAAIGWSGRSTYKYYADSVKGRFTVSGDNAKKTLDLQMKDLKPEDTAVYYCAAHPDYYGDPRTSGAYRYWGQGTQVTVSS
B8: 01B07R3L His-tagged VHH (VHH)
VHH: B7 VHH with A40V, K60R, A63D, K79N, D87G, H101D, D103N, P108V, A113T, R115Q
B9: 01B12R2 His-tagged VHH (VHH)
VHH: EVQLVESGGGLVQAGGSLRLSCAASGRTFSSGIMGWFRQAPGKEREFVAAIEWSGGNTYKYYAESVKGRFAISRDNAKTTAYLQMGSLNPEDTALYYCAADESPSRYIDLRRPAPYHYWGQGTLVTVSS
B10: 01E03R3 His-tagged VHH (VHH)
VHH: QVQLVESGGGLVQTGGSLRLSCAASGRTFSVYRVGWFRQAPGKEREFVAAVIWSGASTYKYAADSVKGRFTISRDNAENTVYLQMNSLKPEDTAVYYCAADPLGLPGPDVRVEGGYRHWGQGTLVTVSS
B11: 01C12R2 His-tagged VHH (VHH)
VHH: EVQLVESGGGLVQAGGSLRLSCAASGRTFGSYSMGWFRQAPGKEREFVGAISWSGSSTYKYYEDSVKGRFTISRDNAKNTVPLQMNSLKPEDTGVYFCGGTMERRDPRRTSAYDYWGQGTLVTVSS
B12: 01C02R2 His-tagged VHH (VHH)
VHH: EVQLVESGGGLVQAGGSLRLSCAASGRSYAMGWFRQAPGKEREFAAAISWSGSRTYYADAVKGRFTISRDNAKNTVYLQMNSLKPEDTAVYYCAADPDGTVVASSGWTNSYEYGYWGQGTLVTVSS
B13: 01A02R3 His-tagged VHH (VHH)
VHH: EVQLVESGGGLVQSGGSLRLSCAASGRTFDQFTVGWFRQAPGKEREFVTAIRWSGSTTYRYYADSVKGRFTISRDNARNTVDLQMNSLKPEDSAVYYCAGQMSQWSDPRGDDYDSWGQGTLVTVSS
B14: 01B08R2 His-tagged VHH (VHH)
VHH: EVQLVESGGRLVQAGGSLRLSCAASGLTRSDYAMGWFRQAPGKEREFVATLKWSEGSRFMYRAEDVKGRFTISSGAAKTTVWLDMDALNPEDTAVYYCAAGFNVGFVRRASEYNFWGQGTLVTVSS
B15: 01D01R3 His-tagged VHH (VHH)
VHH: EVQLVESGGGLVQAGGSLRLSCAASGRTFSVYGMGWFRQAPGQERAFVAAISWSDGSTYYADSVKGRFTISRDNAKNTMYLQMNSLKPEDTAVYFCAADLTGWGLDADVSEYDYWGQGTQVTVSS
B16: 01G04R3 His-tagged VHH (VHH)
VHH: B15 VHH with E1Q
B17: 01E03R2 His-tagged VHH (VHH)
VHH: B15 VHH with Q120L
B18: 02B11R3 His-tagged VHH (VHH)
VHH: EVQLVESGGGLVQAGGSLRLSCAASGRTFSPYGMGWFRQTPGKERAFVAAVDWNDGSTYYSDSVKGRFTISRDNAKNTVYLQMNSLKSEDTAVYYCAADLTGWGLDADVSEYDYWGQGTLVTVSS
B19: 01E02R3LS His-tagged VHH (VHH)
VHH: EVQLVESGGGLVETGGSLRLSCAASGRTESTYTMAWFRQAPGKERERVATISFSGSTTTYLASVQGRFTISRDGAKNTIFLQMNGLKPEDTAVYYCALDTRRRVGSSPRFYDYWGQGTLVTVSS
B20: 01C09R3LS His-tagged VHH (VHH)
VHH: EVQLVESGGGLVQAGGSLRLSCAASGRTINTYVMGWFRQAPGKEREFVARIDWSGSSTDYADSVKGRFTISRDNAKNTVYLQMNSLKPEDTAVYYCAGSAYYSGYVTHRDFGSWGQGTQVTVSS
B21: 01F11R2 His-tagged VHH (VHH)
VHH: B20 VHH with I29L, S57T
B22: 01B10R3LS His-tagged VHH (VHH)
VHH: B20 VHH with E1Q, N30Y, T31G
B23: 01F03R3LS His-tagged VHH (VHH)
VHH: B20 VHH with T31G, K43E, N77I, Q119L
B24: 01B12R3LS His-tagged VHH (VHH)
VHH: B20 VHH with T31G, N77T
B25: 01G10R3LS His-tagged VHH (VHH)
VHH: B20 VHH with M34T
B26: 01E09R3LS His-tagged VHH (VHH)
VHH: B20 VHH with I70T, S85G, Q119L
B27: 01G09R2 His-tagged VHH (VHH)
VHH: B20 VHH with V64A, Q119L
B28: 01C05R3LS His-tagged VHH (VHH)
VHH: B20 VHH with Q119L
B29: 01H11R3LS His-tagged VHH (VHH)
VHH: B20 VHH with E1Q, T31G, N77T, M83T
B30: 01D07R3LS His-tagged VHH (VHH)
VHH: B20 VHH with E1Q, Q119L
B31: 01A04R3LS His-tagged VHH (VHH)
VHH: QVQLVESGGGSVQPGGSLRLSCAASGIDVSISTIMWYRQPPGRQRELVADVIPSGRSTTYTESVKGRFTVTRDNAKNTVYLQMSGLKPEDTAVYYCNAFVRRENYWGQGTQVTVSS
B32: 01E01R3LS His-tagged VHH (VHH)
VHH: QVQLVESGGGLVQAGGSLRLSCAASGRSFSSYNMGWFRQAPGKERDLVAVVTWSGGGTSYADSVKGRFTIARDNANARLYLEMTSLKPEDTAIYYCAATQDWYGGTRAFRAASFHSWGQGTQVTVSS
B33: 01H03R2L His-tagged VHH (VHH)
VHH: B32 VHH with Q1E, Q13R, A71S, R110H, Q122L
B34: 01E04R3LS His-tagged VHH (VHH)
VHH: EVQLVESGGGLVQAGDSLRLSCAASGRTFTTYVMGWFRQAPGKDREFVATITWSGSTNYKYYADPVKGRFTISRDNAKNTVYLQMNSLKPEDTAVYYCTSSTVVTDPRKLNEYAYWGQGTLVTVSS
B35: 01C03R3 His-tagged VHH (VHH)
VHH: QVQLVESGGGLVQAGGSLRLSCAASGRTFSSYAMGWFRQAPGKEREFVAAIHWNGASTYRYSADSVKGRFTISRDNAKNTVYLQMNSLKPEDTAAYYCAASPPPTVGDVRDPANYDSWGQGTLVTVSS
B36: 01C11R2 His-tagged VHH (VHH)
VHH: EVQLVESGGGLVQTGGSLRLSCAASGRTFSTYRMGWFRQAPGKEREFVAAISWSTGSTYYADSVKGRFAISRDNAKNTIYLQMNSLKPEDTAVYYCAAGMVATTRSSAYPYWGQGTQVTVSS
B37: 01D02R3LS His-tagged VHH (VHH)
VHH: QVQLVESGGGLVQAGDSLTLSCAASGRSVGFDTYGMAWFRQAPGKEREFVASIAYNGETTSYADSVQGRFTVTRENAKNTIALRMNGLKPDDTAVYYCAAAQYYLTGTSFPAKFWGQGTLVTVSS

Target: T1, recombinant human pIgR (hpIgR) (human, UniProt P01833 19-638, limits assumed)
T1 construct: probably the ECD
T1 sequence (P01833 19-638 limits assumed): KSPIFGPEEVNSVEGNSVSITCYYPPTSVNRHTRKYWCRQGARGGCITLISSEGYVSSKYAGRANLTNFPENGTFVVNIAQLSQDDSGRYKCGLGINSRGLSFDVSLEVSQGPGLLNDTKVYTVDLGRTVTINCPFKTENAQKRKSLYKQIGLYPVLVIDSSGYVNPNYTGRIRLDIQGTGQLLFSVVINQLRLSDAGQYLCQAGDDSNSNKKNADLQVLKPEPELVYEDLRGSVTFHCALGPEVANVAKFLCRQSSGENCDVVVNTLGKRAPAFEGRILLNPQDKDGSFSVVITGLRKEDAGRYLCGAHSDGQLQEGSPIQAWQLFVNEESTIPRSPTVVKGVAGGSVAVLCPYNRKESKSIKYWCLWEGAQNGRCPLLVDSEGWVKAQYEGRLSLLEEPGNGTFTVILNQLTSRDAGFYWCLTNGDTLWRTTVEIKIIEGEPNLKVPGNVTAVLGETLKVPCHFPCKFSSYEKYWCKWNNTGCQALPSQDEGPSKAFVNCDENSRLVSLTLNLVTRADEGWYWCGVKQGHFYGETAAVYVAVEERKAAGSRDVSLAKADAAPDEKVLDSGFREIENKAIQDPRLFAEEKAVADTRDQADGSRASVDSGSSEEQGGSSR
Test: ELISA, periplasmic VHH, BSA subtracted
Protocol: Initial Library Screening: After each panning round showing enrichment, 94 individual clones were expressed and tested in an off-phage initial screen for specific binding to mpIgR or hpIgR (respectively depending on the antigen used). Screening of monoclones in an off-phage format was performed by transforming the phagemid pool into a non-amber-suppressor strain of E. coli and picking random colonies. The VHH proteins were recovered in the periplasmic fraction by performing osmotic shock. Periplasmic fractions containing His-tagged nanobodies were tested for binding to hpIgR or mpIgR. Bound nanobody was detected with a polyclonal anti-alpaca VHH domain antibody. Each clone was also tested for non-specific binding to BSA in parallel. The ELISA values obtained on BSA were subtracted from the ELISA values obtained on the respective pIgR antigen.
Repeat Testing of Positive Hits: The hits identified in the initial screen of the phage pools were re-tested for binding to either hpIgR or mpIgR. Periplasmic fractions were prepared again by performing osmotic shock. Periplasmic fractions containing His-tagged nanobodies were tested for binding to mpIgR. In this assay, bound nanobody was detected with an anti-VHH antibody. Each clone was also tested for non-specific binding to BSA in parallel. The ELISA values obtained on BSA were subtracted from the ELISA values obtained on the respective pIgR antigen.

| ELISA (OD) | Binder |
| --- | --- |
| 1.8 | B1 |
| 2.11 | B2 |
| 1.54 | B3 |
| 2.37 | B4 |
| 0.55 | B5 |
| 2.06 | B6 |
| 1.95 | B7 |
| 2.29 | B8 |
| 1.78 | B9 |
| 1.07 | B10 |
| 1.85 | B11 |
| 2.26 | B12 |
| 1.98 | B13 |
| 1.94 | B14 |
| 1.95 | B15 |
| 0.73 | B16 |
| 2.13 | B17 |
| 1.35 | B18 |
| 1.69 | B19 |

| ELISA (OD) | Binder |
| --- | --- |
| 1.64 | B20 |
| 0.62 | B21 |
| 1.91 | B22 |
| 2.35 | B23 |
| 2.17 | B24 |
| 1.96 | B25 |
| 1.97 | B26 |
| 2 | B27 |
| 1.89 | B28 |
| 0.99 | B29 |
| 2.07 | B30 |
| 2.15 | B31 |
| 2.2 | B32 |
| 2.18 | B33 |
| 2.13 | B34 |
| 0.56 | B35 |
| 1.3 | B36 |
| 2.45 | B37 |
